Experimental data taken from US20260242419A1, “A CYCLIC PEPTIDE FOR TRAPPING INTERLEUKIN-1 BETA” (Merck Sharp & Dohme LLC, priority 2023, published 2026).
Starred links: 1 amine or outer side, 2 acyl side, 3 side chain; linkers in the order of their positions; H or OH if unused. Non-standard residues stand in square brackets, D forms with d. dProc3Bn4Im4NMe = (2R,3S)-3-(4-(1-methyl-1H-imidazol-4-yl)benzyl)pyrrolidine-2-carboxylic acid, Cn1cnc(-c2ccc(C[C@H]3CCN([*:1])[C@H]3C(=O)[*:2])cc2)c1; dProc3Bn4Im2NMe = (2R,3S)-3-(4-(1-methyl-1H-imidazol-2-yl)benzyl)pyrrolidine-2-carboxylic acid, Cn1ccnc1-c1ccc(C[C@H]2CCN([*:1])[C@H]2C(=O)[*:2])cc1; dProc3CH2Pyrim = (2R,3S)-3-(pyrimidin-5-ylmethyl)pyrrolidine-2-carboxylic acid, O=C([C@H]1[C@@H](Cc2cncnc2)CCN1[*:1])[*:2]; TyrEtNAc = (2S)-3-[4-(2-acetamidoethoxy)phenyl]-2-amino-propanoic acid, CC(=O)NCCOc1ccc(C[C@H](N[*:1])C(=O)[*:2])cc1; Phe(4-(trans-4-COOH-cHex)) = N[C@@H](Cc1ccc([C@H]2CC[C@H](C(=O)O)CC2)cc1)C(=O)O; Phe(4-(cis-4-COOH-cHex)) = N[C@@H](Cc1ccc([C@H]2CC[C@@H](C(=O)O)CC2)cc1)C(=O)O; Trp(βS-Me,4-F) = C[C@@H](c1c[nH]c2cccc(F)c12)[C@H](N)C(=O)O; 3Aminoazetidine3carboxyl = O=C(C1(N[*:1])CN([*:3])C1)[*:2]; Bip(4'-COOH) = N[C@@H](Cc1ccc(-c2ccc(C(=O)O)cc2)cc1)C(=O)O; dPro(4R-Bzl(4-F)) = O=C(O)[C@H]1C[C@@H](Cc2ccc(F)cc2)CN1; Ala(pyrimidin-5-yl) = N[C@@H](Cc1cncnc1)C(=O)O; Phe(4-COOH) = N[C@@H](Cc1ccc(C(=O)O)cc1)C(=O)O; Pro(cis-4-F) = O=C(O)[C@@H]1C[C@H](F)CN1; 4Pal = N[C@@H](Cc1ccncc1)C(=O)O; αMeK = C[C@](N)(CCCCN)C(=O)O; Api = NC1(C(=O)O)CCNCC1; Dab = NCC[C@H](N)C(=O)O; Dap = NC[C@H](N)C(=O)O; Aib = CC(C)(N)C(=O)O

B1: SEQ ID NO: 70 (peptide)
peptide: cyclo([TyrEtNAc][4Pal][Phe(4-COOH)][Pro(cis-4-F)][Trp(βS-Me,4-F)][Aib]EW[Aib][Ala(pyrimidin-5-yl)]Q[Dab]G[dProc3CH2Pyrim])
SMILES: CC(=O)NCCOc1ccc(C[C@@H]2NC(=O)[C@H]3[C@@H](Cc4cncnc4)CCN3C(=O)CNC(=O)[C@H](CCN)NC(=O)[C@H](CCC(N)=O)NC(=O)[C@H](Cc3cncnc3)NC(=O)C(C)(C)NC(=O)[C@H](Cc3c[nH]c4ccccc34)NC(=O)[C@H](CCC(=O)O)NC(=O)C(C)(C)NC(=O)[C@H]([C@@H](C)c3c[nH]c4cccc(F)c34)NC(=O)[C@@H]3C[C@H](F)CN3C(=O)[C@H](Cc3ccc(C(=O)O)cc3)NC(=O)[C@H](Cc3ccncc3)NC2=O)cc1
B2: SEQ ID NO: 66 (peptide)
peptide: cyclo([Bip(4'-COOH)][4Pal][Phe(4-COOH)]G[Pro(cis-4-F)][Trp(βS-Me,4-F)][αMeK]EW[Aib][Ala(pyrimidin-5-yl)]Q[Dab]G[dPro(4R-Bzl(4-F))])
SMILES: C[C@@H](c1c[nH]c2cccc(F)c12)[C@@H]1NC(=O)[C@@H]2C[C@H](F)CN2C(=O)CNC(=O)[C@H](Cc2ccc(C(=O)O)cc2)NC(=O)[C@H](Cc2ccncc2)NC(=O)[C@H](Cc2ccc(-c3ccc(C(=O)O)cc3)cc2)NC(=O)[C@H]2C[C@@H](Cc3ccc(F)cc3)CN2C(=O)CNC(=O)[C@H](CCN)NC(=O)[C@H](CCC(N)=O)NC(=O)[C@H](Cc2cncnc2)NC(=O)C(C)(C)NC(=O)[C@H](Cc2c[nH]c3ccccc23)NC(=O)[C@H](CCC(=O)O)NC(=O)[C@](C)(CCCCN)NC1=O
B3: SEQ ID NO: 63 (peptide)
peptide: cyclo([Bip(4'-COOH)][4Pal][Phe(4-COOH)]G[Pro(cis-4-F)][Trp(βS-Me,4-F)][Aib]EW[Aib][Ala(pyrimidin-5-yl)]Q[Dab]G[dProc3Bn4Im2NMe])
SMILES: C[C@@H](c1c[nH]c2cccc(F)c12)[C@@H]1NC(=O)[C@@H]2C[C@H](F)CN2C(=O)CNC(=O)[C@H](Cc2ccc(C(=O)O)cc2)NC(=O)[C@H](Cc2ccncc2)NC(=O)[C@H](Cc2ccc(-c3ccc(C(=O)O)cc3)cc2)NC(=O)[C@H]2[C@@H](Cc3ccc(-c4nccn4C)cc3)CCN2C(=O)CNC(=O)[C@H](CCN)NC(=O)[C@H](CCC(N)=O)NC(=O)[C@H](Cc2cncnc2)NC(=O)C(C)(C)NC(=O)[C@H](Cc2c[nH]c3ccccc23)NC(=O)[C@H](CCC(=O)O)NC(=O)C(C)(C)NC1=O
B4: SEQ ID NO: 69 (peptide)
peptide: cyclo([Phe(4-(cis-4-COOH-cHex))][4Pal][Phe(4-COOH)]G[Pro(cis-4-F)][Trp(βS-Me,4-F)][Aib]EW[3Aminoazetidine3carboxyl][Ala(pyrimidin-5-yl)]Q[Dab]G[dPro(4R-Bzl(4-F))])
SMILES: C[C@@H](c1c[nH]c2cccc(F)c12)[C@@H]1NC(=O)[C@@H]2C[C@H](F)CN2C(=O)CNC(=O)[C@H](Cc2ccc(C(=O)O)cc2)NC(=O)[C@H](Cc2ccncc2)NC(=O)[C@H](Cc2ccc([C@H]3CC[C@@H](C(=O)O)CC3)cc2)NC(=O)[C@H]2C[C@@H](Cc3ccc(F)cc3)CN2C(=O)CNC(=O)[C@H](CCN)NC(=O)[C@H](CCC(N)=O)NC(=O)[C@H](Cc2cncnc2)NC(=O)C2(CNC2)NC(=O)[C@H](Cc2c[nH]c3ccccc23)NC(=O)[C@H](CCC(=O)O)NC(=O)C(C)(C)NC1=O
B5: SEQ ID NO: 65 (peptide)
peptide: cyclo([Bip(4'-COOH)][4Pal][Phe(4-COOH)]G[Pro(cis-4-F)][Trp(βS-Me,4-F)][Aib]EW[Api][Ala(pyrimidin-5-yl)]Q[Dab]G[dPro(4R-Bzl(4-F))])
SMILES: C[C@@H](c1c[nH]c2cccc(F)c12)[C@@H]1NC(=O)[C@@H]2C[C@H](F)CN2C(=O)CNC(=O)[C@H](Cc2ccc(C(=O)O)cc2)NC(=O)[C@H](Cc2ccncc2)NC(=O)[C@H](Cc2ccc(-c3ccc(C(=O)O)cc3)cc2)NC(=O)[C@H]2C[C@@H](Cc3ccc(F)cc3)CN2C(=O)CNC(=O)[C@H](CCN)NC(=O)[C@H](CCC(N)=O)NC(=O)[C@H](Cc2cncnc2)NC(=O)C2(CCNCC2)NC(=O)[C@H](Cc2c[nH]c3ccccc23)NC(=O)[C@H](CCC(=O)O)NC(=O)C(C)(C)NC1=O
B6: SEQ ID NO: 64 (peptide)
peptide: cyclo([Bip(4'-COOH)][4Pal][Phe(4-COOH)]G[Pro(cis-4-F)][Trp(βS-Me,4-F)][Aib]EW[Aib][Ala(pyrimidin-5-yl)]Q[Dab]G[dProc3Bn4Im4NMe])
SMILES: C[C@@H](c1c[nH]c2cccc(F)c12)[C@@H]1NC(=O)[C@@H]2C[C@H](F)CN2C(=O)CNC(=O)[C@H](Cc2ccc(C(=O)O)cc2)NC(=O)[C@H](Cc2ccncc2)NC(=O)[C@H](Cc2ccc(-c3ccc(C(=O)O)cc3)cc2)NC(=O)[C@H]2[C@@H](Cc3ccc(-c4cn(C)cn4)cc3)CCN2C(=O)CNC(=O)[C@H](CCN)NC(=O)[C@H](CCC(N)=O)NC(=O)[C@H](Cc2cncnc2)NC(=O)C(C)(C)NC(=O)[C@H](Cc2c[nH]c3ccccc23)NC(=O)[C@H](CCC(=O)O)NC(=O)C(C)(C)NC1=O
B7: SEQ ID NO: 7 (peptide)
peptide: cyclo([Bip(4'-COOH)][4Pal][Phe(4-COOH)]G[Pro(cis-4-F)][Trp(βS-Me,4-F)][Aib]EW[Aib][Ala(pyrimidin-5-yl)]Q[Dap]G[dPro(4R-Bzl(4-F))])
SMILES: C[C@@H](c1c[nH]c2cccc(F)c12)[C@@H]1NC(=O)[C@@H]2C[C@H](F)CN2C(=O)CNC(=O)[C@H](Cc2ccc(C(=O)O)cc2)NC(=O)[C@H](Cc2ccncc2)NC(=O)[C@H](Cc2ccc(-c3ccc(C(=O)O)cc3)cc2)NC(=O)[C@H]2C[C@@H](Cc3ccc(F)cc3)CN2C(=O)CNC(=O)[C@H](CN)NC(=O)[C@H](CCC(N)=O)NC(=O)[C@H](Cc2cncnc2)NC(=O)C(C)(C)NC(=O)[C@H](Cc2c[nH]c3ccccc23)NC(=O)[C@H](CCC(=O)O)NC(=O)C(C)(C)NC1=O
B8: SEQ ID NO: 67 (peptide)
peptide: cyclo([Bip(4'-COOH)][4Pal][Phe(4-COOH)]G[Pro(cis-4-F)][Trp(βS-Me,4-F)][Aib]EW[αMeK][Ala(pyrimidin-5-yl)]Q[Dab]G[dPro(4R-Bzl(4-F))])
B9: SEQ ID NO: 68 (peptide)
peptide: cyclo([Phe(4-(trans-4-COOH-cHex))][4Pal][Phe(4-COOH)]G[Pro(cis-4-F)][Trp(βS-Me,4-F)][Aib]EW[3Aminoazetidine3carboxyl][Ala(pyrimidin-5-yl)]Q[Dab]G[dPro(4R-Bzl(4-F))])
SMILES: C[C@@H](c1c[nH]c2cccc(F)c12)[C@@H]1NC(=O)[C@@H]2C[C@H](F)CN2C(=O)CNC(=O)[C@H](Cc2ccc(C(=O)O)cc2)NC(=O)[C@H](Cc2ccncc2)NC(=O)[C@H](Cc2ccc([C@H]3CC[C@H](C(=O)O)CC3)cc2)NC(=O)[C@H]2C[C@@H](Cc3ccc(F)cc3)CN2C(=O)CNC(=O)[C@H](CCN)NC(=O)[C@H](CCC(N)=O)NC(=O)[C@H](Cc2cncnc2)NC(=O)C2(CNC2)NC(=O)[C@H](Cc2c[nH]c3ccccc23)NC(=O)[C@H](CCC(=O)O)NC(=O)C(C)(C)NC1=O

Molecular target: Recombinant human IL-1β (BioLegend 579404) (human, UniProt P01584 117-269)
Experiment: cell-based or functional assay

Binder | MRC5 IC50
B1 | 0.081 nM
B2 | 0.028 nM
B3 | 0.018 nM
B4 | 0.03 nM
B5 | 0.025 nM
B6 | 0.014 nM
B7 | 0.026 nM
B8 | 0.021 nM
B9 | 0.029 nM
